According to patent US7205150B2, “Transgenic plants over-expressing plant ADP-glucose pyrophosphatase” (Universidad Publica de Navarra, priority 2000, dated 2007):

Tests used:
[1] = Stability of AGPPase to pH and temperature; format: physicochemical; details: 65° C. for 30 minutes
[2] = test system: AGPPase (soluble and particulate isoforms); test: AGPPase enzymatic assay (two-step spectrophotometric determination of G1P produced from ADPG); format: biochemical, barley (Hordeum vulgare), tomato (Lycopersicon sculentum)

Resistance of AGPPase to ionic detergents and proteases [2]	Molecule	Heat resistance of soluble AGPPase [1]
	Soluble AGPPase: soluble isoform of AGPPase purified from barley leaves, a germin-like glycoprotein (protein, Hordeum vulgare cv. Scarlett; Soluble AGPPase deduced from cDNA, soluble isoform of AGPPase purified from barley leaves, a germin-like glycoprotein) MANAMLLPVLVSFLVLPFSAMALTQDFCVADLSCSDTPAGYPCKTGVGAGDFYYHGLAAAGNTSNLIKAAVTPAFVGQFPGVNGLGISAARLDIAVGGVVPMHTHPAASELLFVTEGTILAGFISSSSNTVYTKTLYKGDIMVFPQGLLHYQYNGGSSSAVALVAFSGPNPGLQITDYALFANNLPSAVVEKVTFLDDAQVKKLKSVLGGSG	resistant
resistant	K proteinase: protease (Boehringer) (protein, UniProt P06873 106-384, looked up) Proteinase K: AAQTNAPWGLARISSTSPGTSTYYYDESAGQGSCVYVIDTGIEASHPEFEGRAQMVKTYYYSSRDGNGHGTHCAGTVGSRTYGVAKKTQLFGVKVLDDNGSGQYSTIIAGMDFVASDKNNRNCPKGVVASLSLGGGYSSSVNSAAARLQSSGVMVAVAAGNNNADARNYSPASEPSVCTVGASDRYDRRSSFSNYGSVLDIFGPGTSILSTWIGGSTRSISGTSMATPHVAGLAAYLMTLGKTTAASACRYIADTANKGDLSNIPFGTVNLLAYNNYQA	
